The values that follow come from publication PMC2950884 (Nature structural & molecular biology, 2010).

In series [1] the target is Rtt103 CTD-interacting domain (residues 1-131) (S. cerevisiae) (UniProt Q05543). As to the kind of experiment: NMR titration.
Series [2] deals with Pcf11 CTD-interacting domain (S. cerevisiae) (UniProt P39081). As to the kind of experiment: NMR titration.
For series [3], the target named is Pcf11-CID (N107R) (S. cerevisiae) (UniProt P39081). As to the kind of experiment: NMR titration.
Series [4] deals with the molecule itself. As to the kind of experiment: AUC.
The target of series [5] is four heptad repeat Ser2P CTD peptide. As to the kind of experiment: fluorescence polarisation. Background: Fluorescence polarisation rises when a labelled molecule tumbles more slowly, as on binding a larger partner.
The target of series [6] is Ser2abP/Ser5abP-CTD diheptad repeat peptide. As to the kind of experiment: fluorescence polarisation.
Series [7] has as its target Ser2abP-CTD diheptad repeat peptide (phosphorylated at both Ser2 positions). As to the kind of experiment: fluorescence polarisation.
The test system of series [8] is ADH1 gene. As to the kind of experiment: ChIP of TAP tagged proteins, 3′-end recruitment. In kind it is cell-based, yeast.
The test system of series [9] is PMA1 gene. As to the kind of experiment: ChIP of TAP tagged proteins, 3′-end recruitment. Format: cell-based, yeast.
Series [10] has as its target four heptad repeat Ser2P CTD peptide. As to the kind of experiment: NMR relaxation.
For series [11], the target named is Ser5abP-CTD diheptad repeat peptide. As to the kind of experiment: fluorescence polarisation.
The mark [12] stands for this setting: untagged wild-type Pcf11 present.

Changes are numbered by the printed parent chain. Names may count otherwise.

A word on the Kd: it is the constant that tells how readily two partners part at equilibrium. A low value points to tighter binding. Regarding Ser2bP-CTD diheptad repeat peptide, the results for the Kd in [1] and in series [2] were 76 µM and 240 µM, respectively.
For Ser5abP-CTD diheptad repeat peptide, in series [2], the Kd came to 1200 µM.
“Ser2abP-CTD diheptad repeat peptide (phosphorylated at both Ser2 positions)”: the Kd in series [3] is 24 µM; in series [1] it was 15 µM; in series [2], 160 µM.
As to Ser2aP-CTD diheptad repeat peptide, the Kd stood at 420 µM in series [1] and 1400 µM in series [2].
With “Ser2abP/Ser5abP-CTD diheptad repeat peptide”, the figures for the Kd in [1] and in [2] were 41 µM and 630 µM, respectively.

B1: Pcf11 CTD-interacting domain (domain or fragment, S. cerevisiae, UniProt P39081 4-139, looked up)
chain: DTEVIVKDFNSILEELTFNSRPIITTLTKLAEENISCAQYFVDAIESRIEKCMPKQKLYAFYALDSICKNVGSPYTIYFSRNLFNLYKRTYLLVDNTTRTKLINMFKLWLNPNDTGLPLFEGSALEKIEQFLIKAS
Broadly, the stoichiometry N is the number of molecules, sites or subunits per partner or assembly. For B1, in [4], the “stoichiometry N” value amounted to 2. Moreover, in series [5], the Kd1 (first binding event) is 50 µM. Further, the Kd2 (second binding event) in [5] stood at 140 µM. The dissociation constant Kd in series [6] is 370 µM; in series [7], 130 µM.

B2: Pcf11-CID (N107R): Pcf11 with arginine in place of Asn107; CID in vitro, TAP tagged protein in ChIP (protein)
chain: B1 chain with N104R
In the case of B2, the “Increase of 3′-end recruitment compared with wild type Pcf11-TAP (factor)” value in series [8] (setting [12]) and in series [9] (setting [12]) was greater than 2 in each case.

B3: Pcf11(D117K)-CID (domain or fragment)
chain: B1 chain with D114K
Take B3: in series [5], the Kd1 (first binding event) was determined as 30 µM and the Kd2 (second binding event) is 130 µM.

B4: Pcf11(D117A)-CID (domain or fragment)
chain: B1 chain with D114A
In the case of B4, in series [5], the Kd1 (first binding event) amounted to 40 µM and the Kd2 (second binding event) stood at 430 µM.

B5: Rtt103 CTD-interacting domain (residues 1-131) (domain or fragment)
chain: MPFSSEQFTTKLNTLEDSQESISSASKWLLLQYRDAPKVAEMWKEYMLRPSVNTRRKLLGLYLMNHVVQQAKGQKIIQFQDSFGKVAAEVLGRINQEFPRDLKKKLSRVVNILKERNIFSKQVVNDIERSL
In turn, B5 returned a stoichiometry N (proteins per peptide) in series [10] of 2. This molecule had a Kd1 (first binding event) in series [5] of 3 µM. Besides, the Kd2 (second binding event) in series [5] turned out to be 20 µM. The Kd in [6] was 53 µM; in series [11], 122 µM; in series [7], 2.1 µM.

B6: Rtt103-CID (R108N) (domain or fragment)
chain: B5 chain with R108N
Take B6: the “Reduction of 3′-end recruitment compared with wild type (factor)” value was 5 in series [8] and 8 in series [9]. In series [7], this molecule had a Kd of 100 µM.

B7: Rtt103(E115R)-CID (domain or fragment)
chain: B5 chain with E115R
B7 showed a stoichiometry N (protein per peptide) in series [10] of 1. Further, in series [5], the Kd1 (first binding event) was 1.8 µM and the Kd2 (second binding event) is greater than 1000 µM.
